In paper PMC9157124 (Plant Physiology, 2022):

Biological target: N-terminal FLAG-tagged D1 (FLAG-D1) (Synechocystis sp. PCC 6803, UniProt P16033 1-344)
Experiment: co-IP

B1: Ycf48 assembly factor (natural protein, Synechocystis sp. PCC 6803 (endogenous), UniProt P73069 29-342, looked up)
chain: CSHVPDLAFNPWQEIALETDSTFADIAFTEDPNHGWLVGTKETIFETTDGGDTWEQKLIDLGEEKASFSAVSFSGNEGWITGKPSILLHTTDGGQTWARIPLSEKLPGAPYSIIALGPQTAEMITDLGAIYKTTNGGKNWKALVEGAVGVARTIQRSTDGRYVAVSARGNFYSTWAPGQTEWTPHNRNSSRRLQTMGYGKDGQLWLLARGGQLQFSTDPDAEEWSDVIAPQDKGSWGLLDLSFRTPEEVWVAGASGNLLMSQDGGQTWAKDTGVEDIPANLYRVVFLSPEKGFVLGQDGILLKYNPSTEVAMVP
  stoichiometry N: ~1
